# Values quoted from earlier work as cited in paper doi:10.1101/2024.09.16.613101.
# Columns and labels:
# His57 = His57 (UniProt position 57, VVTAAHCGVTT); details: not stated (the structure used for prediction is described as the apoenzyme)
# His40 = His40 (UniProt position 66, SNSYPHKYNNY); assay: NMR; details: native (folded) state, according to the title of ref 70; ligand state not stated
# Glu28 = Glu28 (UniProt position 54, GYQLHEDGETV); assay: NMR; details: native (folded) state, according to the title of ref 70; ligand state not stated
# His27 = His27 (UniProt position 53, AGYQLHEDGET); assay: NMR; details: native (folded) state, according to the title of ref 70; ligand state not stated
# His92 = His92 (UniProt position 118, AGVITHTGASG); assay: NMR; details: native (folded) state, according to the title of ref 70; ligand state not stated
# Glu58 = Glu58 (UniProt position 84, SSPYYEWPILS); assay: NMR; details: native (folded) state, according to the title of ref 70; ligand state not stated
# Cys46 = Cys46 (UniProt position 47, DFTFVCPTELG)
substance,measurement,setting,value
chymotrypsin,pKa,His57,7.5
ribonuclease T1 (Aspergillus oryzae (not stated in the article; inferred)),pKa,His40,7.44
same,pKa,Glu28,5.61
same,pKa,His27,7.57
same,pKa,His92,7.31
same,pKa,Glu58,3.96
peroxiredoxin AhpC (alkyl hydroperoxide reductase subunit C) (bacterial (species not stated in the article)),pKa,Cys46,5.94
